The text below walks through data of patent US20250283037A1 (JUNO THERAPEUTICS, published 2025).

Assay [1] has as its target T1, CD4 on the surface of human T cells (human, UniProt P01730 26-458).
T1 construct: whole, on cells; also called selection marker CD4
As to the kind of experiment: affinity column selection of cells from apheresis by the CD4 marker.

Assay [2] addresses T2, Strep-tactin M2 (streptavidin mutein) immobilised on the chromatography resin (Streptomyces avidinii, UniProt P22629 38-163).
T2 construct: also called immobilized Strep-tactin; STREP-TACTIN-coated resin
As to the kind of experiment: loading of the tagged Fab on Strep-tactin Sephadex G50, 20 min at 4 C.

B1: anti-CD4 Fab fragment m13B8.2 with Twin Strep-Tag (Fab, V domains shown)
VH: QVQLKQSGPGLVQPSQSLSITCTVSGFSLTTFGVHWVRQSPGKGLEWLGVIWASGITDYNVPFMSRLSITKDNSKSQVFFKLNSLQPDDTAIYYCAKNDPGTGFAYWGQGTLVTVSA
VL: DIQMTQSPASLSASVGETVTFTCRASEMIYSYLAWYQQKQGKSPQLLVHDAKTLAEGVPSRFSGGGSGTQFSLKINTLQPEDFGTYYCQAHYGNPPTFGGGTKLEIKR
Take B1: the binding result in assay [1] and in assay [2] was “binds” each time.
